Values quoted from earlier work, collected in publication PMC11209772.
Where “and” joins values, the source holds several entries; their conditions need not be identical. Equal entries are not always repeated. Where two headings read alike, the source gives them in different places.

Columns and labels:
SSB (Escherichia coli) [1] = biological target: SSB (Escherichia coli) (UniProt P0AGE0)
SSB (Escherichia coli) [2] = biological target: SSB (Escherichia coli) (UniProt P0AGE0); test: FP
[3] = biological target: SSB-Ct peptide (Escherichia coli) (UniProt P0AGE0); test: FP
SSB (Escherichia coli) [4] = biological target: SSB (Escherichia coli) (UniProt P0AGE0); test: SPR
[5] = biological target: SSB C-terminal peptide C-terminal 15 residues (Escherichia coli) (UniProt P0AGE0); test: SPR
[6] = biological target: SSB-Ct peptide SSB-Ct (Escherichia coli) (UniProt P0AGE0); test: ITC
SSB (Escherichia coli) [7] = biological target: SSB (Escherichia coli) (UniProt P0AGE0); test: ITC
[8] = biological target: SSB-Ct peptide SSB-Ct (Escherichia coli) (UniProt P0AGE0)
[9] = biological target: SSB-Ct peptide SSB-Ct (Escherichia coli) (UniProt P0AGE0); test: FP

For “DNA polymerase III subunit chi (from UniProt P28905)”, the Kd (SSB (Escherichia coli) [1]) is listed as 330 nM.

For DNA polymerase IV (from UniProt Q47155), the Kd (SSB (Escherichia coli) [2]) is listed as 2000 nM.

In the case of ExoI (from UniProt P04995), the Kd [3] is given as 136 nM.

In the case of Pol III χψ (from UniProt P28905), the Kd (SSB (Escherichia coli) [4]) is listed as 2700 nM.

For PriA (from UniProt P17888), the Kd [5] is given as 2400 nM.

For PriC (from UniProt P23862), the Kd [6] is given as 670 nM and 3700 nM.

For RNase HI (from UniProt P0A7Y4), the Kd (SSB (Escherichia coli) [7]) is given as 2 µM.

For RadD (from UniProt P33919), the Kd [3] is listed as 5400 nM and the Kd [8] is listed as 5.4 µM.

In the case of RarA (from UniProt P0AAZ4), the Kd (SSB (Escherichia coli) [4]) is given as 360 nM.

For RecO (from UniProt P0A7H3), the Kd [9] is listed as 60 nM.

In the case of RecQ (from UniProt P15043), the Kd (SSB (Escherichia coli) [7]) is listed as 6 µM.

In the case of UDG (from UniProt P12295), the Kd (SSB (Escherichia coli) [4]) is given as 170 nM.
